In US20230357348A1 (AstraZeneca / MedImmune, published 2023):
Starred links: 1 amine or outer side, 2 acyl side, 3 side chain; linkers in the order of their positions; H or OH if unused. Non-standard residues stand in square brackets, D forms with d. Groups on a side chain read outwards from the residue. No end group written: not given here. *: point of attachment. C20 diacid = O=C(O)CCCCCCCCCCCCCCCCCCC(=O)*; C18 diacid = O=C(O)CCCCCCCCCCCCCCCCC(=O)*; γGlu = O=C(O)[C@H](CCC(=O)[*:2])N[*:1]; αMeF = C[C@](N)(Cc1ccccc1)C(=O)O; AEEA = NCCOCCOCC(=O)O; Aib = CC(C)(N)C(=O)O

B1: Peptide 360 (peptide)
peptide: H[Aib]IGS[αMeF]TSDVSK[αMeF]LDSRAAQDFVK([AEEA-AEEA-γGlu-C20 diacid])WIANT-NH2
modifications: N-terminus assumed
SMILES: CC[C@H](C)[C@H](NC(=O)[C@H](Cc1c[nH]c2ccccc12)NC(=O)[C@H](CCCCNC(=O)COCCOCCNC(=O)COCCOCCNC(=O)CC[C@H](NC(=O)CCCCCCCCCCCCCCCCCCC(=O)O)C(=O)O)NC(=O)[C@@H](NC(=O)[C@H](Cc1ccccc1)NC(=O)[C@H](CC(=O)O)NC(=O)[C@H](CCC(N)=O)NC(=O)[C@H](C)NC(=O)[C@H](C)NC(=O)[C@H](CCCNC(=N)N)NC(=O)[C@H](CO)NC(=O)[C@H](CC(=O)O)NC(=O)[C@H](CC(C)C)NC(=O)[C@](C)(Cc1ccccc1)NC(=O)[C@H](CCCCN)NC(=O)[C@H](CO)NC(=O)[C@@H](NC(=O)[C@H](CC(=O)O)NC(=O)[C@H](CO)NC(=O)[C@@H](NC(=O)[C@](C)(Cc1ccccc1)NC(=O)[C@H](CO)NC(=O)CNC(=O)[C@@H](NC(=O)C(C)(C)NC(=O)[C@@H](N)Cc1c[nH]cn1)[C@@H](C)CC)[C@@H](C)O)C(C)C)C(C)C)C(=O)N[C@@H](C)C(=O)N[C@@H](CC(N)=O)C(=O)N[C@H](C(N)=O)[C@@H](C)O
B2: Peptide 357 (peptide)
peptide: HXHGSXTSDVSKXLDSQAAQDFVXWIANT
modifications: Aib at 2; αMePhe at 6 and 13; K(γE-γE-(PEG)2-γE-γE-C20diacid)24; C-terminal amide
B3: Peptide 382 (peptide)
peptide: H[Aib]HGS[αMeF]TSDVSK[αMeF]LDSR[Aib]AQDFVK([AEEA-AEEA-γGlu-γGlu-C18 diacid])SIANTGG-NH2
modifications: N-terminus assumed
SMILES: CC[C@H](C)[C@H](NC(=O)[C@H](CO)NC(=O)[C@H](CCCCNC(=O)COCCOCCNC(=O)COCCOCCNC(=O)CC[C@H](NC(=O)CC[C@H](NC(=O)CCCCCCCCCCCCCCCCC(=O)O)C(=O)O)C(=O)O)NC(=O)[C@@H](NC(=O)[C@H](Cc1ccccc1)NC(=O)[C@H](CC(=O)O)NC(=O)[C@H](CCC(N)=O)NC(=O)[C@H](C)NC(=O)C(C)(C)NC(=O)[C@H](CCCNC(=N)N)NC(=O)[C@H](CO)NC(=O)[C@H](CC(=O)O)NC(=O)[C@H](CC(C)C)NC(=O)[C@](C)(Cc1ccccc1)NC(=O)[C@H](CCCCN)NC(=O)[C@H](CO)NC(=O)[C@@H](NC(=O)[C@H](CC(=O)O)NC(=O)[C@H](CO)NC(=O)[C@@H](NC(=O)[C@](C)(Cc1ccccc1)NC(=O)[C@H](CO)NC(=O)CNC(=O)[C@H](Cc1c[nH]cn1)NC(=O)C(C)(C)NC(=O)[C@@H](N)Cc1c[nH]cn1)[C@@H](C)O)C(C)C)C(C)C)C(=O)N[C@@H](C)C(=O)N[C@@H](CC(N)=O)C(=O)N[C@H](C(=O)NCC(=O)NCC(N)=O)[C@@H](C)O
B4: Peptide 355 (peptide)
peptide: HXHGSXTSDVSKXLDSQAAQDFVXWIANT
modifications: Aib at 2; αMePhe at 6 and 13; K((PEG)2-(PEG)2-γE-γE-C20diacid)24; C-terminal amide
B5: Peptide 353 (peptide)
peptide: HXHGSXTSDVSKXLDSQAAQDFVXWIANT
modifications: Aib at 2; αMePhe at 6 and 13; K(γE-γE-(PEG)2-γE-γE-C18diacid)24 (printed YE-YE-(PEG)2-γE-γE-); C-terminal amide
B6: Peptide 362 (peptide)
peptide: H[Aib]HGS[αMeF]TSDVSK[αMeF]LDSRAAQDFVK([AEEA-AEEA-γGlu-γGlu-C18 diacid])WIANT-NH2
modifications: N-terminus assumed
SMILES: CC[C@H](C)[C@H](NC(=O)[C@H](Cc1c[nH]c2ccccc12)NC(=O)[C@H](CCCCNC(=O)COCCOCCNC(=O)COCCOCCNC(=O)CC[C@H](NC(=O)CC[C@H](NC(=O)CCCCCCCCCCCCCCCCC(=O)O)C(=O)O)C(=O)O)NC(=O)[C@@H](NC(=O)[C@H](Cc1ccccc1)NC(=O)[C@H](CC(=O)O)NC(=O)[C@H](CCC(N)=O)NC(=O)[C@H](C)NC(=O)[C@H](C)NC(=O)[C@H](CCCNC(=N)N)NC(=O)[C@H](CO)NC(=O)[C@H](CC(=O)O)NC(=O)[C@H](CC(C)C)NC(=O)[C@](C)(Cc1ccccc1)NC(=O)[C@H](CCCCN)NC(=O)[C@H](CO)NC(=O)[C@@H](NC(=O)[C@H](CC(=O)O)NC(=O)[C@H](CO)NC(=O)[C@@H](NC(=O)[C@](C)(Cc1ccccc1)NC(=O)[C@H](CO)NC(=O)CNC(=O)[C@H](Cc1c[nH]cn1)NC(=O)C(C)(C)NC(=O)[C@@H](N)Cc1c[nH]cn1)[C@@H](C)O)C(C)C)C(C)C)C(=O)N[C@@H](C)C(=O)N[C@@H](CC(N)=O)C(=O)N[C@H](C(N)=O)[C@@H](C)O

biological target: human GLP-1 receptor (hGLP-1R) (human, UniProt P43220 24-463); test: cell-based or functional assay

In order of rising “hGLP-1R EC50 (pM); cAMP production” value:
1. HXIGSXTSDVSKXLDSQAAQDFVXWIANT (Aib at 2; αMePhe at 6 and 13; K(O2Oc-O2Oc-γE-C18diacid)24; C-terminal amide) [Peptide 359]  46.1 pM
2. B3  56 pM
3. HXHGTFTSDVSKXLDSQAAQDFVXWIANT (Aib at 2; αMePhe at 6 and 13; K(O2Oc-O2Oc-γE-C18diacid)24; C-terminal amide) [Peptide 348]  70.1 pM
4. H[Aib]HGS[αMeF]TSDVSK[αMeF]LDSRAAQD[αMeF]VK([AEEA-AEEA-γGlu-C18 diacid])SIANT-NH2 (not fully specified) [Peptide 379]  71.8 pM
5. B1  108 pM
6. HXQGSXTSDVSKXLDSQAAQDFVXWIANT (Aib at 2; αMePhe at 6 and 13; K(O2Oc-O2Oc-γE-C18diacid)24; C-terminal amide) [Peptide 349]  121 pM
7. HXHGSXTSDVSKXLDSQAAQDFVXWIANT (Aib at 2; αMePhe at 6 and 13; K(O2Oc-O2Oc-γE-C20diacid)24; C-terminal amide) [Peptide 356]  304 pM
8. B5  311 pM
9. B4  424 pM
10. H[Aib]HGS[αMeF]TSDVSK[αMeF]LDSQAAQD[αMeF]VK([AEEA-AEEA-γGlu-γGlu-C20 diacid])[Aib]IANT-NH2 [Peptide 384]  797 pM
11. B2  917 pM
12. HXHGSXTSDVSKXLDSQAAQDFVXWIANT (Aib at 2; αMePhe at 6 and 13; K(γE-C20diacid)24; C-terminal amide) [Peptide 354]  1110 pM
13. HXHGTFTSDVSKXLDSQAAQDFVXWIANT (Aib at 2; αMePhe at 13; K(γE-C20diacid)24; C-terminal amide) [Peptide 347]  4970 pM

biological target: human glucagon receptor (hGCGR) (human, UniProt P47871 26-477); test: cell-based or functional assay
Sequence (P47871 26-477): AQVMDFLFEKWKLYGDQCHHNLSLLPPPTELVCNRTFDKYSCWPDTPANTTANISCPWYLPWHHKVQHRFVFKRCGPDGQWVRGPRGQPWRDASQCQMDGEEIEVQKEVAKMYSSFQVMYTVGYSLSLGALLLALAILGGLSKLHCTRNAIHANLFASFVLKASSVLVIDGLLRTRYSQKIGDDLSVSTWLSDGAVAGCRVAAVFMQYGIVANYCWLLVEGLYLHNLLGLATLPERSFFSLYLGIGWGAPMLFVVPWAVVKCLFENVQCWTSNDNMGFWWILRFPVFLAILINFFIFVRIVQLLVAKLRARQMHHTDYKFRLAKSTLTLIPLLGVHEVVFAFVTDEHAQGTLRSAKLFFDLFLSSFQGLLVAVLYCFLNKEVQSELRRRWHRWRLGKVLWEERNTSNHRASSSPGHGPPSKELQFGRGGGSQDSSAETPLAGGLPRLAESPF

In order of rising “hGluc-R EC50 (pM); cAMP production” value:
1. B6  42.8 pM
2. HXQGSXTSDVSKXLDSQAAQDFVXWIANT (Aib at 2; αMePhe at 6 and 13; K(O2Oc-O2Oc-γE-C18diacid)24; C-terminal amide) [Peptide 349]  83.7 pM
3. H[Aib]HGS[αMeF]TSDVSK[αMeF]LDSRAAQD[αMeF]VK([AEEA-AEEA-γGlu-C18 diacid])SIANT-NH2 (not fully specified) [Peptide 379]  85.7 pM
4. B5  163 pM
5. HXHGSXTSDVSKXLDSQAAQDFVXWIANT (Aib at 2; αMePhe at 6 and 13; K(O2Oc-O2Oc-γE-C20diacid)24; C-terminal amide) [Peptide 356]  316 pM
6. B3  329 pM
7. B4  478 pM
8. B2  550 pM
9. HXHGTFTSDVSKXLDSQAAQDFVXWIANT (Aib at 2; αMePhe at 13; K(γE-C20diacid)24; C-terminal amide) [Peptide 347]  597 pM
10. HXHGSXTSDVSKXLDSQAAQDFVXWIANT (Aib at 2; αMePhe at 6 and 13; K(γE-C20diacid)24; C-terminal amide) [Peptide 354]  902 pM
11. H[Aib]HGS[αMeF]TSDVSK[αMeF]LDSQAAQD[αMeF]VK([AEEA-AEEA-γGlu-γGlu-C20 diacid])[Aib]IANT-NH2 [Peptide 384]  1240 pM
12. HXHGTFTSDVSKXLDSQAAQDFVXWIANT (Aib at 2; αMePhe at 6 and 13; K(O2Oc-O2Oc-γE-C18diacid)24; C-terminal amide) [Peptide 348]  4110 pM
13. HXIGSXTSDVSKXLDSQAAQDFVXWIANT (Aib at 2; αMePhe at 6 and 13; K(O2Oc-O2Oc-γE-C18diacid)24; C-terminal amide) [Peptide 359]  5050 pM
14. B1  5640 pM
